Experimental data as given in patent publication US20250339501A1, “COMPOSITIONS AND METHODS FOR TREATING METABOLIC DISEASE” (The Regents of the University of California, priority 2021, published 2025).

Key:
AMPK = AMPK phosphorylation immunoblot in HepG2 cells; format: cell-based, human
Protocol: (§1) Mouse myoblast cells (C2C12) were maintained in high glucose DMEM/high, 10% fetal bovine serum with penicillin/streptomycin. pRK5-Dj1-HA plasmid was purchased from Addgene (#29396). Seeded cells were cultured in 6-well plates for 24 hours prior to transfection. Transfections were performed using Lipofectamine 2000 and PLUS reagent according to manufacturer instructions (Invitrogen, Carlsbad, CA). Human HepG2 cells were cultured in DMEM/low media containing 10% fetal bovine serum with penicillin/streptomycin. Mouse AML12 cells were maintained in DMEM/F12, ITS supplement (Gibco, USA), 40 ng/ml dexamethasone, and 10% fetal bovine serum with penicillin/streptomycin. For in vitro experiments, HepG2 cells were treated with or without recombinant human Dj1 protein (Novus, NBC1-18334) in serum-free media containing 25 mM glucose, 200 μM palmitic acid, and 0.25% bovine serum albumin for an indicated time.

PPARα = PPARα expression and transcriptional activity in the liver; format: in vivo, mouse; conditions: liver of NC-fed mice
Protocol: Also, the transcriptional activity of PPARα was determined to be elevated by Dj1 administration in the liver of both NC- and HFD-fed mice (FIGS. 6L, 6M, 6S, 6T). Furthermore, Dj1 elevated plasma β-hydroxybutyrate (a ketone body) levels in NC-fed mice but not in HFD-fed mice (FIG. 6N, 6U).

HepG2 cells [1] = assay: OCR/ECAR and mitochondrial ATP production in HepG2 cells; format: cell-based, human
Protocol: as §1

mitochondrial complex II = assay: Complex II activity of isolated liver mitochondria from treated HFD-fed mice; format: in vivo, mouse
AML12 cells = assay: Fluorescent-labeled rDj1 binding to plasma membrane of liver cells; format: cell-based, mouse; conditions: Alex 488-labeled rDj1 added to medium, fluorescent microscopy
Protocol: Myokines contribute to whole-body metabolism by directly signaling to distant organs (15-18). To determine which organs Dj1 targets, WT mice were tail-vein injected with a recombinant Dj1 (rDj1) protein labeled with the near-infrared fluorescent dye IRDye 800CW, and the fluorescent signals were tracked using an optical imaging system (FIGS. 3I, 3J). A robust fluorescent signal could be detected within 5 minutes post-injection. […] Considering that the reagents injected through tail-vein often nonspecifically target the liver, fluorescent-labeled rDj1 was used to determine whether Dj1 could bind to the plasma membrane of liver cells. rDj1 was labeled with Alex 488 and added into the medium of mouse liver cells (AML12 cells) at the indicated time.

HFD-fed mice = assay: rDj1 or tDj1 intravenous every other day for 14 days in HFD-fed mice; format: in vivo, mouse
Protocol: C57BL/10cSn-Dmd^mdx/J (001801, mdx) and C57BL/10ScSnJ (000476, WT) mice were ordered directly from The Jackson Laboratory. Different ages of mdx and WT mice were obtained. Animals were weaned 21 days after birth and had free access to food and water and were housed on 12 h light-dark cycle. C57BL/6J males were introduced to a normal diet (NC, Research Diets D15100601) or high-fat diet (HFD, Research Diets D12331), and maintained on a diet for the indicated time. The HFD diet derives 58% of its kilocalories (kcal) from fat (soybean and coconut oil), 25.5% from carbohydrates (sucrose and maltodextrin), and 16.4% from protein (casein). NASH model mice were fed for up to 28 weeks with the NASH diet (Envigo, TD.120528) and 42% fructose (Sigma, F0127) in the water (1,2). The NASH diet is composed of 405.36 g/Kg sucrose and 12.5 g/Kg cholesterol. Recombinant mouse Dj1 protein (Novus, NBP2-59523) or truncated mouse Dj1 (tDj1, GenScript) protein was intravenously injected every day for 5 days or every other day for 2 weeks. Skeletal muscle-specific Park7 knockout mice were generated by crossing Park7 flox mice with Myl1-cre mice (JAX, #024713). Mice were raised in microisolator cages with a 12 h: 12 h light: dark cycle. All procedures were performed in accordance with the Guide for Care and Use of Laboratory Animals of the National Institutes of Health, and were approved by the Animal Subjects Committee of the University of California, Los Angeles.
Cryosections (10-μm thick transverse sections of frozen muscle cut in a cryostat (Leica) at −20° C.) were subjected to hematoxylin & eosin (H&E) staining (10, 54). Liver tissues were fixed in phosphate-buffered 10% formalin and embedded in paraffin wax. Sections were cut and stained with H&E.
Mouse serum Dj1 and CK were measured by mouse Park7/DJ-1 DuoSet ELISA (DY8136, R&D systems) and mouse CKMB/Creatine Kinase MB ELISA Kit (LS-F5745, LSBio) respectively. Mouse Serum AST and ALT were measured by AST activity assay kit (Sigma, MAK055) and ALT activity assay kit (Sigma, MAK052) respectively.
Plasma and liver NEFA, Cholesterol, and Triglyceride were analyzed by their respective kits (FUJIFILM Wako Diagnostics)
About 80 mg of liver samples were homogenized and sonicated in PBS (pH 7.4) for lipid extraction. An internal standard mixture (ISTD) and CHCl3:methanol (2:1) were added to the samples before being vortexed, mixed, sonicated, and centrifuged. The supernatant containing the lipid was removed and dried, the lipids were resuspended in ethanol and then sonicated.
Dj1 is a highly conserved protein that is ubiquitously expressed in most mammalian tissues. It belongs to the Dj1/ThiJ/PfpI family chaperones, and its expression is induced by oxidative stress (20,21). To determine whether the PfpI domain of Dj1 exerts a similar role as the full-length Dj1 protein (rDj1) in liver cells, truncated Dj1 (tDj1) comprising of only the PfpI domain was purified (FIG. 5O). HFD-fed mice were intravenous injected with rDj1 or tDj1 every other day for 14 days.

mitochondrial complex I = assay: Complex I activity of isolated liver mitochondria from treated HFD-fed mice; format: in vivo, mouse
HepG2 cells [2] = assay: Fatty acid oxidation and lipid content in HepG2 cells; format: cell-based, human
Protocol: as §1
AMPK signaling is vital for lipid metabolism in the liver (19). […] These findings indicate that Dj1 could enhance lipid metabolism and ameliorate HFD-induced hepatic steatosis. rDj1 was tail-vein injected into mice fed with a chow diet (NC) or high-fat diet (HFD) daily for 5 days. […] Although body weights and fasting blood glucose levels of HFD-fed mice were unchanged during the rDj1 administration, rDj1 indeed enhanced glucose homeostasis and insulin action, as evidenced by improving glucose tolerance tests and insulin tolerance tests, respectively (FIGS. 4K-4M, 4U-4Z).

B1: rDj1: full-length recombinant Dj1 protein; mouse protein (Novus, NBP2-59523) injected in mice, human protein used in HepG2 cells (protein, UniProt Q99LX0 1-189, looked up)
chain: MASKRALVILAKGAEEMETVIPVDVMRRAGIKVTVAGLAGKDPVQCSRDVMICPDTSLEDAKTQGPYDVVVLPGGNLGAQNLSESPMVKEILKEQESRKGLIAAICAGPTALLAHEVGFGCKVTTHPLAKDKMMNGSHYSYSESRVEKDGLILTSRGPGTSFEFALAIVEALVGKDMANQVKAPLVLKD
modifications: full-length
notes: full-length recombinant Dj1 protein; mouse protein (Novus, NBP2-59523) injected in mice, human protein used in HepG2 cells
AMPK
  phosphorylation of AMPK: elevated
PPARα
  transcriptional activity of PPARα: elevated
HepG2 cells [1]
  mitochondrial ATP production rate: enhanced
  oxygen consumption rate/extracellular acidification rate (OCR/ECAR): enhanced
Mitochondrial complex II
  mitochondrial complex II activity: Enhanced
AML12 cells
  localization of labeled rDj1 on liver cells: colocalized with the plasma membrane
HFD-fed mice
  level of TG in the liver: significantly reduced
  liver histology, lipid accumulation: less lipid accumulation
  plasma ALT levels: reducing
  plasma AST levels: reducing
Mitochondrial complex I
  mitochondrial complex I activity: Enhanced
HepG2 cells [2]
  Oil Red O staining (neutral lipids): reduced
  fatty acid oxidation: significantly promoted
  triacylglycerol (TG) levels: reduced
